A word on the Kd: it is the concentration at which binding is half-saturated. In general, koff refers to a measure of how fast the partners let go of each other. Broadly, the kon is a measure of how fast the partners come together. A high value points to fast association.

The results in this text go back to US20240360224A1 (ORIONIS BIOSCIENCES, published 2024).

B1: R1CHCL50 (wild type) (VHH)
VHH: QVQLVESGGGLVHPGGSLRLSCAASGSFSSINVMGWYRQAPGKERELVARITNLGLPNYADSVTGRFTISRDNAKNTVYLQMNSLKPEDTAVYYCYLVALKAEYWGQGTQVTVSS
notes: pHEN6C periplasmic expression with C-terminal his6 tag
B2: R1CHCL50_opt3 (E1D-A74S-K83R-Q108L-T64K) (VHH)
VHH: DVQLVESGGGLVHPGGSLRLSCAASGSFSSINVMGWYRQAPGKERELVARITNLGLPNYADSVKGRFTISRDNSKNTVYLQMNSLRPEDTAVYYCYLVALKAEYWGQGTLVTVSS
notes: The entry already carries the named substitutions; pHEN6C, C-terminal his6 tag
B3: R1CHCL50_opt1 (E1D-A74S-K83R-Q108L) (VHH)
VHH: DVQLVESGGGLVHPGGSLRLSCAASGSFSSINVMGWYRQAPGKERELVARITNLGLPNYADSVTGRFTISRDNSKNTVYLQMNSLRPEDTAVYYCYLVALKAEYWGQGTLVTVSS
notes: as for B2
B4: R1CHCL50_opt2 (E1D-A74S-K83R-Q108L-H13Q) (VHH)
VHH: DVQLVESGGGLVQPGGSLRLSCAASGSFSSINVMGWYRQAPGKERELVARITNLGLPNYADSVTGRFTISRDNSKNTVYLQMNSLRPEDTAVYYCYLVALKAEYWGQGTLVTVSS
notes: as for B2
B5: R1CHCL50_opt4 (E1D-A74S-K83R-Q108L-H13Q-T64K) (VHH)
VHH: DVQLVESGGGLVQPGGSLRLSCAASGSFSSINVMGWYRQAPGKERELVARITNLGLPNYADSVKGRFTISRDNSKNTVYLQMNSLRPEDTAVYYCYLVALKAEYWGQGTLVTVSS
notes: as for B2
B6: 2LEC 88 (VHH)
VHH: QVQLQESGGGLVQPGGSLRLSCTASGSFFSINAMGWYRQAPGNQRELVAAITNGGRIAYTDSVKGRFTISNDNAKNTVYLQMNSLKPEDTDVYYCNAKAIPIYGSTAEDYWGQGTQVTVSS
notes: Entry includes C-terminal AAA-HA-His6 (pMECS)
B7: 3LEC 4 (VHH)
VHH: QVQLQESGGGLVQPGGSLRLSCAASGSFFSINAMGWYRQAPGKQRELVAAITNQGRIAYADSVKGRFTISRDNAKNTVYLQMNSLKPEDTAVYYCGRPGWDYWGQGTQVTVSS
notes: as for B6
B8: 2LEC 95 (VHH)
VHH: QVQLQESGGGLVQAGGSLRLSCEASGRTFSTYAMAWFRQAPGKERDLVAAISWSGGSTEYHDSVKGRFTISRDNTKNTVYLQMNSLKAEDTAVYYCAAEVEGSGREGNFYGASWYPGQGTQVTVSS
notes: Entry includes C-terminal AAA-HA-His tag (pMECS); only five His are printed in the text
B9: 2LEC 83 (VHH)
VHH: QVQLQESGGGLVQAGGSLRLSCAASGRTLSSYTIGWYRQAPGKQRELVAAITNQGRRTYADSVKGRFTISRDNAKNTVYLQMDSLKSEDTAVYYCKGFSPTDDFWGQGTQVTVSS
notes: as for B6
B10: 2LEC 61 (VHH)
VHH: QVQLQESGGGLVQPGGSLRLSCAASGSIVSINSMGWYRQAPGKQRELVAAITDQGRTTYADSVKGRFTISRDDAKNKNTVYLQMNSLKAEDTAVYACKAFGRFDDYWGQGTQVTVSS
notes: as for B6
B11: 3LEC 9 (VHH)
VHH: QVQLQESGGGLVQAGGSLRVSCAASGRTLSNYAVGWWRQAPGKQREFVAAINWSSGGISYSNSAKGRFALSRDNAKNTVYLQMDSLKPEDTAVYYCAAASSVLSGTVDYWGQGTQVTVSS
notes: as for B6
B12: 3LEC 61 (VHH)
VHH: QVQLQESGGGLVQAGGSLRVSCAASGRTLSNYAVAWFRQAPGKQREFVAAINWSSGGISYSNAAKGRFALSRDNAKNTVYLQMDSLKPEDTAVYYCAAASSILSGTVDYWGQGTQVTVSS
notes: as for B6
B13: 3LEC 82 (VHH)
VHH: QVQLQESGGGLVQAGGSLRLSCAASGRTLSNYAVAWFRQAPGKQRELVAAIWWASGGISYANSAKGRFVLSRDNAKNTVYLQMDSLKPEDTAVYYCAAASSVLSGTADYWGQGTQVTVSS
notes: as for B6
B14: 2LEC 89 (VHH)
VHH: QVQLQESGGGLVQAGGSLRLSCAASGSIFSINSMGWYRQAPGKQRELVAAITNGGRTTYADSVKGRFTISRDNAKNTVYLQMDSLKPEDTAVYYCKGFSLTDDYWGQGTQVTVSS
notes: as for B6
B15: 3LEC 22 (VHH)
VHH: QVQLQESGGGRVQPGGSLRLSCAAIGSIFEINSIGWYRQAPGKQRELVAAITSGGITNYANSVQGRSTISRDNVNNTVYLQMNSLKPEDSAVYYCKGFTGWGKEDYWGQGTQVTVSS
notes: as for B6
B16: 1LEC 26 (VHH)
VHH: QVQLQESGGGLVQPGGSLRLSCAASGRFFRVNAMGWYRQAPGKQRELVAAITNGGQTAYADSVKGRFTISKESARNTVHLQMSSLKPEDTAVYYCTIWAADYQQYWGQGTQVTVSS
notes: as for B6
B17: 3LEC 23 (VHH)
VHH: QVQLQESGGGLVQTGGSLRLSCAASGSIFNINSMGWYRQAPGKQRELVAAITVGGRLAYADSAKGRFTISKESARNTVHLQMSSLKPEDTAVYYCTIWAADYQQYWGQGTQVTVSS
notes: as for B6
B18: 3LEC 15 (VHH)
VHH: QVQLQESGGGLVQAGGSLRLSCAASGSVFSINAMGWYRQAPEKQRELVAAITTQGRTTYEDSVKGRFTISRDGAQNTVYLQMDSLKPEDTAVYYCKAWTAKDDYWGKGTQVTVSS
notes: as for B6
B19: 2LEC 62 (VHH)
VHH: QVQLQESGGGLVQPGGSLRLSCAAYGSIFSINAMGWYRQAPGKERELVAGITTQGRITYGNSVRGRFTISGDNAKNTVYLQMKSLKPEDTAVYYCSAWGVKTGPESGSGTLEGQGTQVTVSS
notes: as for B6
B20: 2LEC 76 (VHH)
VHH: QVQLQESGGGLVQAGESLRLSCVVSGRTFSINAMGWYRQAPGKQRELVAAITNQGRLSYVDSVKGRFTISRDNAANTVYLQMNSLKPEDTAVYYCAAFQSSGIDWGQGTQVTVSS
notes: as for B6
B21: 2LEC 67 (VHH)
VHH: QVQLQESGGGLVQAGGSLRLSCAASGRTFPGYVMAWFRQSPGQEREFAAAINWRGGDTYYADSVKGRFTISRDNVKNTVFLQMNSLKPEDTAVYFCAARLTTEYDYAYWGQGTQVTVSS
notes: as for B6
B22: 3LEC 27 (VHH)
VHH: QVQLQESGGGLVQAGGSLRLSCAASVNIGTLNSMAWYREAPGKQRELVAGITGGGQITYANSVRGRFTVSRDIAKSTAYLQMNTLKPEDTAVYYCAAYDRSATPYWGQGTQVTVSS
notes: as for B6
B23: 1LEC 51 (VHH)
VHH: QVQLQESGGGLVQAGGSLRLSCAASVNIDTLNSMAWYRQAPGKQRELVAGITGSGQITYANSVRGRFTVSRDNAKSTVYLQMNTLQPEDTAVYYCAAYDRSSTPYWGQGTQVTVSS
notes: as for B6
B24: 3LEC 6 (VHH)
VHH: QVQLQESGGGLVQAGGSLRLSCVASVNIGSLNSMVWYRQSPGKQRELVAGITGSGQITYANSVRGRFTVSRDIAKSTAYLQMNTLKPEDTAVYYCAAYDRSATAYWGQGTQVTVSS
notes: as for B6
B25: 1LEC 27 (VHH)
VHH: QVQLQESGGGLVQAGESLRLSCAASGSSDSINAMGWYRQAPGKQRELVAAITSGGRSTYIDSAKGRATISRDNARNTAYLQMSSLKAEDTAVYYCTIWNRDRQQYWGQGTQVTVSS
notes: as for B6
B26: 3LEC 94 (VHH)
VHH: QVQLQESGGGSVQAGGSLRLSCAASGRTFSSYAMAWFRQAPGMERELVAAISWSGGSTYYADSVKGRFTISRDNAENTVYLQMNSLKPEDTAVYYCAAEAEGSGREGNFYERSWYQGQGTQVTVSS
notes: as for B6
B27: 1LEC 61 (VHH)
VHH: QVQLQESGGGLVQPGGSLRLSCAASGGISSINSMGWYRQAPGNQRELVAAITNGGRTVYGDSVKGRFTISRDSAGNTVHLQMDSLRPEDTGVYYCKAFTRGDDYWGQGTQVTVSS
notes: as for B6
B28: 3LEC 62 (VHH)
VHH: QVQLQESGGGLVQPGGSLRLSCAASGRIGSINSMGWYRQAPGKQREMVAAITNGGATVYADSVKGRFTISRDNAGNTVDLHMNSLRPEDSAVYYCTIWAADYQQYWGQGTQVTVSS
notes: as for B6
B29: 3LEC 13 (VHH)
VHH: QVQLQESGGGLVQPGGSLRLSCAASGRFFRVNAMGWYRQAPGKQRELVAAITNGGQIVYADSVKGRFTISRDSAKNTVYLQMNSLKSEDTAVYYCNAKAAASYVSTVADYWGQGTQVTVSS
notes: as for B6

T2 sequence (Q6UXN8 whole entry, the tested form may be a part): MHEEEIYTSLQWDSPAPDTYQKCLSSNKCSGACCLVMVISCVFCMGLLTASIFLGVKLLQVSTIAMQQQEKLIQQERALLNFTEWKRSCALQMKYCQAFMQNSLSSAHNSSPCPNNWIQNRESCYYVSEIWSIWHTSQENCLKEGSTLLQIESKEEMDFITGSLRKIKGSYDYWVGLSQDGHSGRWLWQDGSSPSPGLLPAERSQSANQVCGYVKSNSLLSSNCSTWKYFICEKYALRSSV

For the first assay, the target named is T1, biotinylated human CLEC9A (human, UniProt Q6UXN8 57-241, limits assumed, biotinylated (site not stated)).
T1 construct: Captured on a streptavidin sensor for BLI
T1 sequence (Q6UXN8 57-241 limits assumed): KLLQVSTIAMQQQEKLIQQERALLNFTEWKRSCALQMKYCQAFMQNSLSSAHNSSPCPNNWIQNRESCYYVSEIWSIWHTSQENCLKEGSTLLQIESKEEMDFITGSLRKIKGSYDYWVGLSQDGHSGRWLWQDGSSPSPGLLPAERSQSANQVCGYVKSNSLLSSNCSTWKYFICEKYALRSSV
The assay can be described thus: BLI (Octet), biotinylated human CLEC9A on streptavidin sensor, VHH at 50, 100 and 200 nM, global analysis. As for the experimental part:
Affinities of the AFN's for Clec9A were determined using the bio-layer interferometry technology on an Octet system (ForteBio).
The molecule B1 gave a Kd of 1.72 nM, a koff of 0.000705 s⁻¹ and a kon of 410000 M⁻¹ s⁻¹. For B2 the same measures were 1.79 nM, 0.000998 s⁻¹ and 559000 M⁻¹ s⁻¹. For B3 the same measures were 1.29 nM, 0.000635 s⁻¹ and 492000 M⁻¹ s⁻¹. For B4 the same measures were 1.15 nM, 0.000723 s⁻¹ and 630000 M⁻¹ s⁻¹. On to B5, for which the affinity, expressed as Kd, was 2.7 nM; the koff amounted to 0.00118 s⁻¹; the kon is 438000 M⁻¹ s⁻¹.

The next assay has as its target T2, human Clec9A (human, UniProt Q6UXN8 1-241).
T2 construct: Expressed on transfected CHO-K1, HEK293-T and HL116 cells, or native on human dendritic cells; also called hClec9A; C-type lectin domain family 9 member A
Briefly: flow cytometry on HEK293-T cells transfected with human Clec9A; His-tagged VHH at 2 µg/ml, anti-His FITC antibody; single concentration. As for the experimental part: The binding characteristics of various VHHs (as described in Example 1) were tested by flow cytometry. HEK293-T cells were transfected with a human Clec9A expression plasmid and stained with the His-tagged VHHs at 2 μg/ml, followed by staining with an anti-His Fitc conjugated antibody. Binding was measured by detecting cellular fluorescence via flow cytometry.
Take B6: the binding result is “binds”. Same read-out and setting: then B7, with “binds”.

As to B8, the binding result was “binds”. On the same count and under the same terms, then B9, with “binds”; and B10, with “binds”; and B11, with “binds”. The same measure, in the same setting: with B12 the entry was “binds”; with B13, “binds”. Still for that read-out and setting: with B14 the entry was “binds”; with B15, “binds”; with B16, “binds”. With B17, the binding result was “binds”. With B18, the binding result is recorded as “binds”. On the same count and under the same terms, with B19 the entry was “binds”. The same measure, in the same setting: with B20 the entry was “binds”. For the molecule B21, the binding result is on record as “binds”. The same measure, in the same setting: then B22, with “binds”. As to B23, the binding result is reported as “binds”. The same measure, in the same setting: then B24, with “binds”.

In the case of B25, the binding result is “binds”. On the same count and under the same terms, with B26 the entry was “binds”; with B27, “binds”; with B28, “binds”.

Take B29: the binding result is given as “binds”.
